In patent US20240400621A1, “PEPTIDES FOR METABOLIC SYNDROME” (ALPARIS, S.A. de C.V., priority 2021, published 2024):

How the values were obtained:
[1] = target: human Toll-like receptor 2 (hTLR2) on HEK-Blue hTLR2 cells (human (printed as hTLR2), UniProt O60603 21-784); test: cell-based or functional assay
leptin = test: Leptin levels in mice fed a high-fat diet; format: in vivo, mice (C57BL/6JN); conditions: 12 weeks; compared to mice fed only DAG
Method: (§1) For all the in vivo testing, male mice of the C57BL/6JN strain between 8 to 10 weeks of age were used, housed in groups of 3 to 5 mice per cage with food and water ad libitum in ventilated racks, and whose microbiota were unified for 4 weeks.
(§2) The mice received either 200 μL of a phosphate buffer solution (PBS) at pH 7.5 (as a vehicle), or 200 μL of the PBS solution, with each of the intragastric treatments daily for 12 weeks. They were fed either a Normal Diet (DN, Harlan, Teklad 2018SX) with 18% of the calories coming from fat, or a High-Fat Diet (DAG, Research Diets, D12491), with 60% of the calories coming from fat.
(§3) All the mice were randomly divided into five experimental groups in order to study the effect of SEQ ID NO: 3 and SEQ ID NO: 2 correctly: • Group 1—Mice with DN that received 200 μl of PBS intragastrically. • Group 2—Mice with DAG that received 200 μl of PBS intragastrically. • Group 3—Mice with DAG that received 200 μl of PBS with SEQ ID NO: 3 intragastrically at a dose of: 2.5 μg/mouse. • Group 4—Mice with DAG that received 200 μl of PBS with SEQ ID NO: 2 intragastrically at a dose of 0.6 μg/mouse (high dose). • Group 5—Mice with DAG that received 200 μl of PBS with SEQ ID NO: 2 intragastrically at a dose of 0.2 μg/mouse (low dose). […]

hTLR2 = target: T1, hTLR2 (Homo sapiens, UniProt O60603); test: hTLR2 stimulation in HEK-Blue hTLR2 cells (NF-κβ/SEAP reporter, QUANTI-Blue); format: cell-based
T1 construct: expressed in transfected cells; host or cells: HEK-Blue hTLR2 cells
Method: The analysis of the biological activity of the protein of SEQ ID NO. 1 was performed via an in vitro Toll-like receptors (TLRs) recognition assay. The HEK-Blue hTLR2 cell line expressing the hTLR2 receptor was used, whose stimulation activates the NF-Kβ factor, which in turn induces the production of the reporter protein, secreted embryonic alkaline phosphatase (SEAP). The SEAP levels are quantified by a colorimetric method with the reagent QUANTI-Blue and correspond to hTLR2 stimulation levels. The HEK-Blue hTLR2 cell line was thawed and propagated to make a master cell bank. From this bank, a vial was thawed to check the correct growth of the cell line and the absence of mycoplasma contamination. The cells of the thawed vial were propagated to make a working cell bank and continue the subcultures to mount the activity assay of SEQ ID NO. 1. This consisted of a series of tests in which the cellular response was evaluated with different molecules to determine the most suitable conditions for the assay.
The determined EC50 for SEQ ID NO. 1 was 1147±211 ng/ml (35.1±6.4 nM).
The in vitro biological activity of SEQ ID NO:2, SEQ ID NO:3, SEQ ID NO:4, SEQ ID NO: 8, SEQ ID NO:9, SEQ ID NO: 10, SEQ ID NO:11, SEQ ID NO: 12, SEQ ID NO: 13, SEQ ID NO: 14, SEQ ID NO: 15, and SEQ ID NO:16 was tested via the stimulation of hTLR2 in the cultures of HEK-Blue hTLR2 cells in 96-well plates for 24 h. After collecting the supernatant, the plate was incubated with QUANTI-Blue at 37° C. for 1 h, and absorbance was measured at 620 nm.
To determine the EC50, the absorbance was plotted against the logarithm of protein concentration, and the data was adjusted to a dose-response sigmoidal ligand binding model with 4 parameters. The cell culture medium was used as a negative control, and PAM (synthetic triacylated lipopeptide (Pam3CSK4)) was used as a positive control.

adiponectin = test: Adiponectin levels in mice fed a high-fat diet; format: in vivo, mice (C57BL/6JN); conditions: 12 weeks; fall induced by DAG
Method: as §1, §2, §3

T1 sequence (O60603 21-784): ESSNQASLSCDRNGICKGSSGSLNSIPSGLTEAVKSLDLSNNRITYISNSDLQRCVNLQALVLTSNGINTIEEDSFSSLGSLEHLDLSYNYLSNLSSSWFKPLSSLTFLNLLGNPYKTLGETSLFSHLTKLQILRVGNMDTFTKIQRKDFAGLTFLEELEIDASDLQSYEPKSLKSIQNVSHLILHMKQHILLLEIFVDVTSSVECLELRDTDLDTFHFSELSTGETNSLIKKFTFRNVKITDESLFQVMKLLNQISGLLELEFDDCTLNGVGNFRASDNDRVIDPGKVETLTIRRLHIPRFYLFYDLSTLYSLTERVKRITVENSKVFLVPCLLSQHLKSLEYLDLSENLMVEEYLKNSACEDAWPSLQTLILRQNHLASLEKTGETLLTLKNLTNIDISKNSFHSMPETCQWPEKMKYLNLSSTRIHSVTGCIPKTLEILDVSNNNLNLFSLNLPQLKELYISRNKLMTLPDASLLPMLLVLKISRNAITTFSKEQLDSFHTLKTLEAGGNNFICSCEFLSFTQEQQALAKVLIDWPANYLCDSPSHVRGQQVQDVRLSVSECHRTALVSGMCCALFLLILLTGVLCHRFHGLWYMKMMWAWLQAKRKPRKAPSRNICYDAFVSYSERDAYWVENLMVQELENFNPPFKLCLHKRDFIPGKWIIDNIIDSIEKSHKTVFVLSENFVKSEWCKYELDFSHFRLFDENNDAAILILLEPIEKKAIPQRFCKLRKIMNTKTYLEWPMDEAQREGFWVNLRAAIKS
Sequence of human Toll-like receptor 2 (hTLR2) on HEK-Blue hTLR2 cells (O60603 21-784): as above

EC50 [1]: 25.9 nM | concentration from which hTLR2 is (significantly) stimulated (hTLR2; HEK-Blue hTLR2 cells, 24 h): 8 nM | relative response compared to PAM (hTLR2; from 229 nM, PAM (Pam3CSK4) positive control): 107%
B1: peptide SEQ ID NO: 3 (carboxyl terminal domain of SEQ ID NO: 1) (peptide)
chain: QLPIETPANNPEESDEADQAPWTPMPLEIAFQGDRESVLKAMNAITGMQDYLFTVNSIRIRNERMMPPPIANPAAAKPAAAQPATGAASLTPADEAAAPAAPAIQQVIKPYMGKEQVFVQVSLNLVHFNQPKAQEPSED
leptin secretion (leptin): decrease in leptin secretion | adiponectin in circulation (adiponectin): tendency to prevent a fall of adiponectin
